Measurements published in publication PMC7387793, “Structural Basis and Evolution of Glycan Receptor Specificities within the Polyomavirus Family” (mBio, 2020).

Tests used:
GhPyV VP1 = target: T1, GhPyV VP1 (Goose hemorrhagic polyomavirus, UniProt A0A860PKB9); experiment: X-ray crystal structure (soak); type: binding; settings: crystal soaked with 20 mM 2-O-Me-Neu5Ac, 17 h, MES/imidazole pH 6.5, 1.95 Å; BC2 loop site
T1 construct: truncated VP1, residues 21-286, E. coli BL21(DE3), His tag cut by thrombin (GSHM left), pentamer; site includes counterclockwise monomer

[1] = target: Chimpanzee polyomavirus (ChPyV) major capsid protein VP1, N- and C-terminally truncated, C154S (chimpanzee polyomavirus (ChPyV)); experiment: crystal structure; X-ray structures of truncated, assembly-incompetent VP1 pentamers, native and soaked with sialylated glycans; solved by molecular replacement with 5-fold NCS restraints
[2] = target: Finch polyomavirus (FiPyV) major capsid protein VP1, amino acids 22 to 291, C78S C92S (finch polyomavirus (FiPyV)); experiment: as above
[3] = target: Goose hemorrhagic polyomavirus (GhPyV) major capsid protein VP1, amino acids 21 to 286 (goose hemorrhagic polyomavirus (GhPyV)); experiment: as above
[4] = target: Human polyomavirus 12 (HPyV12) major capsid protein VP1, amino acids 27 to 299 (human polyomavirus 12 (HPyV12)); experiment: as above
[5] = target: New Jersey polyomavirus (NJPyV) major capsid protein VP1, amino acids 36 to 323 (New Jersey polyomavirus-2013 (NJPyV)); experiment: as above
[6] = target: Sheep polyomavirus (ShPyV) major capsid protein VP1, amino acids 20 to 285, C95S (sheep polyomavirus (ShPyV)); experiment: as above

`CO[C@]1(C(=O)O)C[C@H](O)[C@@H](NC(C)=O)[C@H]([C@H](O)[C@H](O)CO)O1` [2-O-Me-Neu5Ac] was tested, and the “X-ray crystal structure (soak)” value (GhPyV VP1) was “GhPyV VP1 with 2-O-Me-Neu5Ac”.
In the case of “Chimpanzee polyomavirus (ChPyV) major capsid protein VP1, N- and C-terminally truncated, C154S (domain or fragment)”, the stoichiometry N [1] is reported as 5.
Work on “Finch polyomavirus (FiPyV) major capsid protein VP1, amino acids 22 to 291, C78S C92S (domain or fragment)” yielded a stoichiometry N [2] of 5.
Work on “Goose hemorrhagic polyomavirus (GhPyV) major capsid protein VP1, amino acids 21 to 286 (domain or fragment)” yielded a stoichiometry N [3] of 5.
“Human polyomavirus 12 (HPyV12) major capsid protein VP1, amino acids 27 to 299 (domain or fragment)” showed a stoichiometry N [4] of 5.
“New Jersey polyomavirus (NJPyV) major capsid protein VP1, amino acids 36 to 323 (domain or fragment)” showed a stoichiometry N [5] of 5.
For “Sheep polyomavirus (ShPyV) major capsid protein VP1, amino acids 20 to 285, C95S (domain or fragment)”, the stoichiometry N [6] was 5.
